Source: patent publication US20110091994A1, “Methods for Screening Compounds for Treating and/or Preventing an Hepatitis C Virus Infection” (priority 2008, published 2011)

How the values were obtained:
[1] = target: T1, HCV ORFs (Gal4-DB fusions) (Hepatitis C virus genotype 1b, UniProt Q9WMX2); assay type: binding, HCV genotype 1b, isolate con1; details: HCV protein NS3 as bait; human protein as prey
T1 construct: expressed in transfected cells; host or cells: Saccharomyces cerevisiae MAV203 (IMAP1) / AH109 (IMAP2)
T1 sequence (Q9WMX2 1027-1657): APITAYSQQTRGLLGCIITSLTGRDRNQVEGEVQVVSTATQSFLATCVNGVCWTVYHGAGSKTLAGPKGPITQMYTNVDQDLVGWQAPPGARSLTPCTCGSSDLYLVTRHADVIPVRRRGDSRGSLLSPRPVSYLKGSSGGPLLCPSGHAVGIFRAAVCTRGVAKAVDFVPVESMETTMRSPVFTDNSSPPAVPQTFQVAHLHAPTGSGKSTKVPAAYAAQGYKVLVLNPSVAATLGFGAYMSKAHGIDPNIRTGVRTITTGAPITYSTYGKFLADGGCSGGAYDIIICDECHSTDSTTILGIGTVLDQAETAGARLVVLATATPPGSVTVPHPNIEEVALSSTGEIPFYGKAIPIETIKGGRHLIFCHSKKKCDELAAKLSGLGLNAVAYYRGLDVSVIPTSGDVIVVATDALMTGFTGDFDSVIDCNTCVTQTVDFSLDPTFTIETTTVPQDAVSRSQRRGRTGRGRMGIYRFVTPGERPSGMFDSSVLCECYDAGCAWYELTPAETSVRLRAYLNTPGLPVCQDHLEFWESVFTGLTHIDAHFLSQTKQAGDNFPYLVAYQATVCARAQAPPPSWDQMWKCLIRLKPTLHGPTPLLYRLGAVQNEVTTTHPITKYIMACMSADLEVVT

[2] = test system: HCV ORFs (Gal4-DB fusions); assay type: binding, HCV genotype 1b, isolate con1; details: human protein listed by gene symbol; the value names the HCV protein it interacts with
HCV proteins = target: T2, HCV proteins (Hepatitis C virus genotype 1b, UniProt Q9WMX2); assay: Validation by Y2H pairwise matrices; assay type: binding; details: validation of interaction with HCV protein NS3;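 also: yeast two-hybrid pairwise tests of interactions first found in Y2H screens of HCV bait proteins against human cDNA libraries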
T2 construct: expressed in transfected cells
T2 sequence (Q9WMX2 1027-1657): as above
Procedure: A comprehensive interactome map between HCV and cellular proteins was generated by Y2H screens. Twenty seven constructs encoding full-length HCV mature proteins or discrete domains were cloned using a recombination-based cloning system (10) (FIG. 6). Four independent screens were performed with each HCV bait protein, probing two distinct human cDNA libraries (Supplementary Methods). […] Two validation methods were used to assess the confidence of the IMAP Y2H dataset.
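For IMAP Y2H IMAP1 (number of IST) in this document: yeast two-hybrid screens using HCV genotype 1b proteins fused to Gal4-DB as baits against prey cDNA libraries from human spleen and foetal brain, IMAP1 via transformation and IMAP2 via mating.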
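For IMAP Y2H IMAP2 (number of IST) in this document: yeast two-hybrid screens using HCV genotype 1b proteins fused to Gal4-DB as baits against prey cDNA libraries from human spleen and foetal brain, IMAP1 via transformation and IMAP2 via mating.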
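For Interaction with viral protein in this document: yeast two-hybrid screens using HCV genotype 1b proteins fused to Gal4-DB as baits against prey cDNA libraries from human spleen and foetal brain, IMAP1 via transformation and IMAP2 via mating.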

| Molecule | IMAP Y2H IMAP1 (number of IST) [1] | Interaction with viral protein [2] | Y2H matrices (HCV proteins) | IMAP Y2H IMAP2 (number of IST) [1] |
| --- | --- | --- | --- | --- |
| XRN2 (protein, UniProt Q9H0D6 1-950, looked up) 5'-3' exoribonuclease 2: MGVPAFFRWLSRKYPSIIVNCVEEKPKECNGVKIPVDASKPNPNDVEFDNLYLDMNGIIHPCTHPEDKPAPKNEDEMMVAIFEYIDRLFSIVRPRRLLYMAIDGVAPRAKMNQQRSRRFRASKEGMEAAVEKQRVREEILAKGGFLPPEEIKERFDSNCITPGTEFMDNLAKCLRYYIADRLNNDPGWKNLTVILSDASAPGEGEHKIMDYIRRQRAQPNHDPNTHHCLCGADADLIMLGLATHEPNFTIIREEFKPNKPKPCGLCNQFGHEVKDCEGLPREKKGKHDELADSLPCAEGEFIFLRLNVLREYLERELTMASLPFTFDVERSIDDWVFMCFFVGNDFLPHLPSLEIRENAIDRLVNIYKNVVHKTGGYLTESGYVNLQRVQMIMLAVGEVEDSIFKKRKDDEDSFRRRQKEKRKRMKRDQPAFTPSGILTPHALGSRNSPGSQVASNPRQAAYEMRMQNNSSPSISPNTSFTSDGSPSPLGGIKRKAEDSDSEPEPEDNVRLWEAGWKQRYYKNKFDVDAADEKFRRKVVQSYVEGLCWVLRYYYQGCASWKWYYPFHYAPFASDFEGIADMPSDFEKGTKPFKPLEQLMGVFPAASGNFLPPSWRKLMSDPDSSIIDFYPEDFAIDLNGKKYAWQGVALLPFVDERRLRAALEEVYPDLTPEETRRNSLGGDVLFVGKHHPLHDFILELYQTGSTEPVEVPPELCHGIQGKFSLDEEAILPDQIVCSPVPMLRDLTQNTVVSINFKDPQFAEDYIFKAVMLPGARKPAAVLKPSDWEKSSNGRQWKPQLGFNRDRRPVHLDQAAFRTLGHVMPRGSGTGIYSNAAPPPVTYQGNLYRPLLRGQAQIPKLMSNMRPQDSWRGPPPLFQQQRFDRGVGAEPLLPWNRMLQTQNAAFQPNQYQMLAGPGGYPPRRDDRGGRQGYPREGRKYPLPPPSGRYNWN | 1 | NS3 | + | – |
| ZBTB1 (protein, UniProt Q9Y2K1 1-713, looked up) Zinc finger and BTB …: MAKPSHSSYVLQQLNNQREWGFLCDCCIAIDDIYFQAHKAVLAACSSYFRMFFMNHQHSTAQLNLSNMKISAECFDLILQFMYLGKIMTAPSSFEQFKVAMNYLQLYNVPDCLEDIQDADCSSSKCSSSASSKQNSKMIFGVRMYEDTVARNGNEANRWCAEPSSTVNTPHNREADEESLQLGNFPEPLFDVCKKSSVSKLSTPKERVSRRFGRSFTCDSCGFGFSCEKLLDEHVLTCTNRHLYQNTRSYHRIVDIRDGKDSNIKAEFGEKDSSKTFSAQTDKYRGDTSQAADDSASTTGSRKSSTVESEIASEEKSRAAERKRIIIKMEPEDIPTDELKDFNIIKVTDKDCNESTDNDELEDEPEEPFYRYYVEEDVSIKKSGRKTLKPRMSVSADERGGLENMRPPNNSSPVQEDAENASCELCGLTITEEDLSSHYLAKHIENICACGKCGQILVKGRQLQEHAQRCGEPQDLTMNGLGNTEEKMDLEENPDEQSEIRDMFVEMLDDFRDNHYQINSIQKKQLFKHSACPFRCPNCGQRFETENLVVEHMSSCLDQDMFKSAIMEENERDHRRKHFCNLCGKGFYQRCHLREHYTVHTKEKQFVCQTCGKQFLRERQLRLHNDMHKGMARYVCSICDQGNFRKHDHVRHMISHLSAGETICQVCFQIFPNNEQLEQHMDVHLYTCGICGAKFNLRKDMRSHYNAKHLKRT | 1 | NS3 | + | – |
| ZCCHC7 (protein, UniProt Q8N3Z6 1-543, looked up) Zinc finger CCHC …: MMFGGYETIEAYEDDLYRDESSSELSVDSEVEFQLYSQIHYAQDLDDVIREEEHEEKNSGNSESSSSKPNQKKLIVLSDSEVIQLSDGSEVITLSDEDSIYRCKGKNVRVQAQENAHGLSSSLQSNELVDKKCKSDIEKPKSEERSGVIREVMIIEVSSSEEEESTISEGDNVESWMLLGCEVDDKDDDILLNLVGCENSVTEGEDGINWSISDKDIEAQIANNRTPGRWTQRYYSANKNIICRNCDKRGHLSKNCPLPRKVRRCFLCSRRGHLLYSCPAPLCEYCPVPKMLDHSCLFRHSWDKQCDRCHMLGHYTDACTEIWRQYHLTTKPGPPKKPKTPSRPSALAYCYHCAQKGHYGHECPEREVYDPSPVSPFICYYDDKYEIQEREKRLKQKIKVLKKNGVIPEPSKLPYIKAANENPHHDIRKGRASWKSNRWPQENKETQKEMKNKNRNWEKHRKADRHREVDEDFPRGPKTYSSPGSFKTQKPSKPFHRSSHYHTSREDKSPKEGKRGKQKKKERCWEDDDNDNLFLIKQRKKKS | 2 | NS3 | + | 1 |
| ZHX3 (protein, UniProt Q9H4I2 1-956, looked up) Zinc fingers and homeoboxes …: MASKRKSTTPCMIPVKTVVLQDASMEAQPAETLPEGPQQDLPPEASAASSEAAQNPSSTDGSTLANGHRSTLDGYLYSCKYCDFRSHDMTQFVGHMNSEHTDFNKDPTFVCSGCSFLAKTPEGLSLHNATCHSGEASFVWNVAKPDNHVVVEQSIPESTSTPDLAGEPSAEGADGQAEIIITKTPIMKIMKGKAEAKKIHTLKENVPSQPVGEALPKLSTGEMEVREGDHSFINGAVPVSQASASSAKNPHAANGPLIGTVPVLPAGIAQFLSLQQQPPVHAQHHVHQPLPTAKALPKVMIPLSSIPTYNAAMDSNSFLKNSFHKFPYPTKAELCYLTVVTKYPEEQLKIWFTAQRLKQGISWSPEEIEDARKKMFNTVIQSVPQPTITVLNTPLVASAGNVQHLIQAALPGHVVGQPEGTGGGLLVTQPLMANGLQATSSPLPLTVTSVPKQPGVAPINTVCSNTTSAVKVVNAAQSLLTACPSITSQAFLDASIYKNKKSHEQLSALKGSFCRNQFPGQSEVEHLTKVTGLSTREVRKWFSDRRYHCRNLKGSRAMIPGDHSSIIIDSVPEVSFSPSSKVPEVTCIPTTATLATHPSAKRQSWHQTPDFTPTKYKERAPEQLRALESSFAQNPLPLDEELDRLRSETKMTRREIDSWFSERRKKVNAEETKKAEENASQEEEEAAEDEGGEEDLASELRVSGENGSLEMPSSHILAERKVSPIKINLKNLRVTEANGRNEIPGLGACDPEDDESNKLAEQLPGKVSCKKTAQQRHLLRQLFVQTQWPSNQDYDSIMAQTGLPRPEVVRWFGDSRYALKNGQLKWYEDYKRGNFPPGLLVIAPGNRELLQDYYMTHKMLYEEDLQNLCDKTQMSSQQVKQWFAEKMGEETRAVADTGSEDQGPGTGELTAVHKGMGDTYSEVSENSESWEPRVPEASSEPFDTSSPQAGRQLETD | 4 | NS3 | + | – |
| ZNF281 (protein, UniProt Q9Y2X9 1-895, looked up) Zinc finger protein 281: MKIGSGFLSGGGGTGSSGGSGSGGGGSGGGGGGGSSGRRAEMEPTFPQGMVMFNHRLPPVTSFTRPAGSAAPPPQCVLSSSTSAAPAAEPPPPPAPDMTFKKEPAASAAAFPSQRTSWGFLQSLVSIKQEKPADPEEQQSHHHHHHHHYGGLFAGAEERSPGLGGGEGGSHGVIQDLSILHQHVQQQPAQHHRDVLLSSSSRTDDHHGTEEPKQDTNVKKAKRPKPESQGIKAKRKPSASSKPSLVGDGEGAILSPSQKPHICDHCSAAFRSSYHLRRHVLIHTGERPFQCSQCSMGFIQKYLLQRHEKIHSREKPFGCDQCSMKFIQKYHMERHKRTHSGEKPYKCDTCQQYFSRTDRLLKHRRTCGEVIVKGATSAEPGSSNHTNMGNLAVLSQGNTSSSRRKTKSKSIAIENKEQKTGKTNESQISNNINMQSYSVEMPTVSSSGGIIGTGIDELQKRVPKLIFKKGSRKNTDKNYLNFVSPLPDIVGQKSLSGKPSGSLGIVSNNSVETIGLLQSTSGKQGQISSNYDDAMQFSKKRRYLPTASSNSAFSINVGHMVSQQSVIQSAGVSVLDNEAPLSLIDSSALNAEIKSCHDKSGIPDEVLQSILDQYSNKSESQKEDPFNIAEPRVDLHTSGEHSELVQEENLSPGTQTPSNDKASMLQEYSKYLQQAFEKSTNASFTLGHGFQFVSLSSPLHNHTLFPEKQIYTTSPLECGFGQSVTSVLPSSLPKPPFGMLFGSQPGLYLSALDATHQQLTPSQELDDLIDSQKNLETSSAFQSSSQKLTSQKEQKNLESSTGFQIPSQELASQIDPQKDIEPRTTYQIENFAQAFGSQFKSGSRVPMTFITNSNGEVDHRVRTSVSDFSGYTNMMSDVSEPCSTRVKTPTSQSYR | 1 | NS3 | + | – |
| ZNF410 (protein, UniProt Q86VK4 1-478, looked up) Zinc finger protein 410: MLSDELESKPELLVQFVQNTSIPLGQGLVESEAKDITCLSLLPVTEASECSRLMLPDDTTNHSNSSKEVPSSAVLRSLRVNVGPDGEETRAQTVQKSPEFLSTSESSSLLQDLQPSDSTSFILLNLTRAGLGSSAEHLVFVQDEAEDSGNDFLSSESTDSSIPWFLRVQELAHDSLIAATRAQLAKNAKTSSNGENVHLGSGDGQSKDSGPLPQVEKKLKCTVEGCDRTFVWPAHFKYHLKTHRNDRSFICPAEGCGKSFYVLQRLKVHMRTHNGEKPFMCHESGCGKQFTTAGNLKNHRRIHTGEKPFLCEAQGCGRSFAEYSSLRKHLVVHSGEKPHQCQVCGKTFSQSGSRNVHMRKHHLQLGAAGSQEQEQTAEPLMGSSLLEEASVPSKNLVSMNSQPSLGGESLNLPNTNSILGVDDEVLAEGSPRSLSSVPDVTHHLVTMQSGRQSYEVSVLTAVNPQELLNQGDLTERRT | 1 | NS3 | + | – |
| ZZZ3 (protein, UniProt Q8IYH5 1-903, looked up) ZZ-type zinc …: MAASRSTRVTRSTVGLNGLDESFCGRTLRNRSIAHPEEISSNSQVRSRSPKKRPEPVPIQKGNNNGRTTDLKQQSTRESWVSPRKRGLSSSEKDNIERQAIENCERRQTEPVSPVLKRIKRCLRSEAPNSSEEDSPIKSDKESVEQRSTVVDNDADFQGTKRACRCLILDDCEKREIKKVNVSEEGPLNSAVVEEITGYLAVNGVDDSDSAVINCDDCQPDGNTKQNSIGSYVLQEKSVAENGDTDTQTSMFLDSRKEDSYIDHKVPCTDSQVQVKLEDHKIVTACLPVEHVNQLTTEPATGPFSETQSSLRDSEEEVDVVGDSSASKEQCKENTNNELDTSLESMPASGEPEPSPVLDCVSAQMMSLSEPQEHRYTLRTSPRRAAPTRGSPTKNSSPYRENGQFEENNLSPNETNATVSDNVSQSPTNPGEISQNEKGICCDSQNNGSEGVSKPPSEARLNIGHLPSAKESASQHITEEEDDDPDVYYFESDHVALKHNKDYQRLLQTIAVLEAQRSQAVQDLESLGRHQREALKNPIGFVEKLQKKADIGLPYPQRVVQLPEIVWDQYTHSLGNFEREFKNRKRHTRRVKLVFDKVGLPARPKSPLDPKKDGESLSYSMLPLSDGPEGSSSRPQMIRGRLCDDTKPETFNQLWTVEEQKKLEQLLIKYPPEEVESRRWQKIADELGNRTAKQVASRVQKYFIKLTKAGIPVPGRTPNLYIYSKKSSTSRRQHPLNKHLFKPSTFMTSHEPPVYMDEDDDRSCFHSHMNTAVEDASDDESIPIMYRNLPEYKELLQFKKLKKQKLQQMQAESGFVQHVGFKCDNCGIEPIQGVRWHCQDCPPEMSLDFCDSCSDCLHETDIHKEDHQLEPIYRSETFLDRDYCVSQGTSYNYLDPNYFPANR | 1 | NS3 | + | – |
